Reference: doi:10.1101/2022.05.18.492574

Biological target: GyrA14 (UniProt P0AES4)
Assay: SEC-MALS

stoichiometry N: 2
Substance: GyrA14 (from UniProt P0AES4 363-494) (domain or fragment)
